Data reported in patent publication US20240327502A1 (Merck Sharp & Dohme, published 2024).
Where two headings read alike, the source gives them in different places.

Experiments:
[1] = molecular target: T1, unprocessed hMPV PreF trimeric antigen (human metapneumovirus strain B2); assay: ELISA; Ni-NTA plate coated with Expi293 supernatant containing the His-tagged antigen; antibody titrated; OD450
T1 construct: also called unprocessed hMPV WT PreF trimer; hMPV WT trimer

[2] = molecular target: T2, Q434H; assay: as above
T2 construct: also called unprocessed hMPV PreF Q434H

[3] = molecular target: unprocessed hMPV PreF G264R/Q434H (human metapneumovirus strain B2); assay: as above
[4] = molecular target: unprocessed hMPV PreF K138Q (human metapneumovirus strain B2); assay: as above
[5] = molecular target: unprocessed hMPV PreF G264R (human metapneumovirus strain B2); assay: as above
[6] = molecular target: T3, V231A; assay: as above
T3 construct: also called unprocessed hMPV PreF V231A

[7] = molecular target: unprocessed hMPV PreF V231A/G264R (human metapneumovirus strain B2); assay: as above
[8] = molecular target: T4, MPV-F (Example 7) (human metapneumovirus, UniProt Q6WB98 19-489); assay: ELISA on supernatant of cells transiently transfected with the MPV-F construct; antibody titrated; OD450
T4 construct: also called hMPV F monomer

[9] = molecular target: T5, L219Y; assay: as above
T5 construct: also called MPV-F L219Y

[10] = molecular target: T6, D209Y; assay: as above
T6 construct: also called MPV-F D209Y

[11] = molecular target: T7, N210A; assay: as above
T7 construct: also called MPV-F N210A

[12] = molecular target: T8, R329A; assay: as above
T8 construct: also called MPV-F R329A

[13] = molecular target: T9, A216Y; assay: as above
T9 construct: also called MPV-F A216Y

[14] = molecular target: T10, N202A; assay: as above
T10 construct: also called MPV-F N202A

[15] = molecular target: T11, A249Y; assay: as above
T11 construct: also called MPV-F A249Y

[16] = molecular target: T12, R198A; assay: as above
T12 construct: also called MPV-F R198A

[17] = molecular target: T13, R253A; assay: as above
T13 construct: also called MPV-F R253A

[18] = molecular target: F protein of hMPV B virus (human metapneumovirus subtype B); assay: cell-based or functional assay
[19] = molecular target: F protein of RSV B/Washington virus (respiratory syncytial virus B, …); assay: cell-based or functional assay
[20] = molecular target: F protein of hMPV A virus (human metapneumovirus subtype A); assay: cell-based or functional assay
[21] = molecular target: T1, unprocessed hMPV PreF trimeric antigen; assay: ELISA; Ni-NTA plate coated with Expi293 supernatant containing the His-tagged antigen; antibody titrated; OD450; remark: listed apart in the source
[22] = molecular target: T14, T61A, S175R, A185D; assay: as above
T14 construct: also called unprocessed hMPV PreF T61A/S175R/A185D

[23] = molecular target: T15, T143K; assay: as above
T15 construct: also called unprocessed hMPV PreF T143K

[24] = molecular target: T16, D296K; assay: as above
T16 construct: also called unprocessed hMPV PreF D296K

[25] = molecular target: T17, N135T G139N Y233N; assay: as above
T17 construct: also called unprocessed hMPV PreF N135T/G139N/Y233N

[26] = molecular target: T18, K312Q; assay: as above
T18 construct: also called unprocessed hMPV PreF K312Q

B1: M2D2 (antibody, V domains shown)
VH: QVQLVQSGAEVKKPGASVKVSCKASGYNFDNYYMSWVRQAPGQGLEWLGIIDPSGGRISYAPKFQGRVTLTRDTSTSTVYMELRGLRFEDTALYYCARLEATHEGPWGQGTLVTVSS
VL: QSVLTQPPSASGTPGQRVTISCSGSNSNIGSSTVNWYQQLPGTAPKLLIYSDNHRPSGVPDRFSGSRSGTSASLVISGLHSEDEADYYCGTWDDGLNGPYVFGTGTKVTVL
notes: IgG
EC50 (read off the curve) [1]: ~0.004 µg/mL | EC50 (read off the curve) [2]: ~0.01 µg/mL | binding result [3]: binds | EC50 (read off the curve) [4]: ~0.006 µg/mL | binding result [5]: binds | EC50 (read off the curve) [6]: ~0.006 µg/mL | binding result [7]: binds | EC50 (read off the curve) [8]: ~0.02 µg/mL | EC50 (read off the curve) [9]: ~0.05 µg/mL | EC50 (read off the curve) [10]: ~0.04 µg/mL | EC50 (read off the curve) [11]: ~0.02 µg/mL | EC50 (read off the curve) [12]: ~0.03 µg/mL | EC50 (read off the curve) [13]: ~0.04 µg/mL | EC50 (read off the curve) [14]: ~0.03 µg/mL | EC50 (read off the curve) [15]: ~0.05 µg/mL | EC50 (read off the curve) [16]: ~0.02 µg/mL | EC50 (read off the curve) [17]: ~0.04 µg/mL | PRNT IC50 [18]: 0.0584 µg/mL | PRNT IC50 [19]: 0.0039 µg/mL | PRNT IC50 [20]: 0.0296 µg/mL

B2: M2A05 (antibody, V domains shown)
VH: QITLKESGPTLVKPTQTLTLTCTVSGFSLSANSVGVAWFRQPPGKAPEWLGVIYWDDDKRFSPSLKTRLSITKDASTSQVVLRLTNVSPLDTATYYCVRKHYDLLQWGQGAPVTVSS
VL: EIVLTQSPGTLSLSPGEGATLSCRASRSVNSDYIAWYQHKPGLAPRLLIYAASTRATDIPDRFRADVSGTDFTLTIDRLEPDDFAVYYCQQYGSAVWTFGQGTRVEVK
notes: IgG
EC50 (read off the curve) [21]: ~0.004 µg/mL | EC50 (read off the curve) [22]: ~0.004 µg/mL | EC50 (read off the curve) [23]: ~0.003 µg/mL | EC50 (read off the curve) [24]: ~0.07 µg/mL | EC50 (read off the curve) [25]: ~0.003 µg/mL | EC50 (read off the curve) [26]: ~0.003 µg/mL | PRNT IC50 [18]: 0.0657 µg/mL | PRNT IC50 [20]: > 10 µg/mL
